Test results from patent US20060269538A1.

Legend:
[1] = target: variant D (trypsin mutant of SEQ ID NO:5) (human); experiment: cell-based or functional assay; settings: scale: % of the serum concentration of anti-plasmin
[2] = target: variant E (trypsin mutant of SEQ ID NO:5) (human); experiment: cell-based or functional assay; settings: scale: % of the serum concentration of anti-plasmin
Sequence of variant E (trypsin mutant of SEQ ID NO:5) (human) (chain, as listed by the source mutant): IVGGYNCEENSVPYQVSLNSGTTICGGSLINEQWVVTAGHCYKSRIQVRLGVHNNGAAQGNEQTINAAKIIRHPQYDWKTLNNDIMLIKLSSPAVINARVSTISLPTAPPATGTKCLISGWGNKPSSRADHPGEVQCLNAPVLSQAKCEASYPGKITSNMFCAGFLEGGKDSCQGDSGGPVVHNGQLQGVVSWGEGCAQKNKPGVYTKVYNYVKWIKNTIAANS

Sequence of variant D (trypsin mutant of SEQ ID NO:5) (human) (chain, as listed by the source mutant limits assumed): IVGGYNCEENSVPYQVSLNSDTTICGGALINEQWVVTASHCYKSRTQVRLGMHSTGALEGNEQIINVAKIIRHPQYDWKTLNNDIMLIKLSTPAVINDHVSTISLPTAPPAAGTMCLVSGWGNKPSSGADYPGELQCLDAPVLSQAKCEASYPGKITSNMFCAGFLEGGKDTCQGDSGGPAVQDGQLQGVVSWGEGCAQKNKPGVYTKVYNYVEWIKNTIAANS

In the case of “antiplasmin (from UniProt P08697 40-491)”, the IC50 (inhibitor concentration at 50% residual proteolytic activity; cleavage of fluorescently labelled TNF-alpha) [1] is reported as 5 and the IC50 (inhibitor concentration at 50% residual proteolytic activity; cleavage of fluorescently labelled TNF-alpha) [2] is reported as 40.
